In the assay the target is tissue factor (TF), endogenous on human cells (human (endogenous in HMVEC, HUVEC, HAEC, MDA-MB-231)) (UniProt P13726).
Chain of UniProt P13726 (P13726 33-295): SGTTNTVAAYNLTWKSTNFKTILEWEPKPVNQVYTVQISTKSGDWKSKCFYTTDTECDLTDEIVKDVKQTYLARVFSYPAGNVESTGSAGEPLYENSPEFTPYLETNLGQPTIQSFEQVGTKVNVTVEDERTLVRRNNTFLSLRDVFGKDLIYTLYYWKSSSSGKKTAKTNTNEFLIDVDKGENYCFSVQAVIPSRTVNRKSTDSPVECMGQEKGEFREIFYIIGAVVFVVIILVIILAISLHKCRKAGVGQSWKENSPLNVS

mfVII/NLS-SnCe6 conjugate (ligand) came in with a clonogenic assay of angiogenic HMVEC after fVII-tPDT with fVII/NLS-SnCe6 (0.0, 0.5, 1 and 2 μM SnCe6, 635 nm laser light at 36 J/cm^2); EC50 of SnCe6 for killing of 31 nM.
